What was measured:
MS2 coat protein [1] = experiment: apparent KD of MS2 coat protein, switch ON state; designed switch direction (-1 OFF switch, 1 ON switch): -1; higher = weaker reporter binding; conditions: FMN input: 0 or 200 uM; Eterna round: R93 (includes R88 designs)
In short: (§1)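 The buffer was 100 mM Tris-HCl pH 7.5 with 80 mM KCl and 4 mM MgCl2, used without or with constant ligand. In it, RNA switches transcribed on-chip from Illumina sequencing clusters were titrated with SNAP-549-labelled MS2 coat protein in twofold steps from 0.7 or 1.5 nM to 3 µM. Apparent KD for each design is the median of its normalised cluster binding-curve fits.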

MS2 coat protein [2] = experiment: apparent KD of MS2 coat protein, switch OFF state (with FMN for OFF switches, without FMN for ON switches); designed switch direction (-1 OFF switch, 1 ON switch): -1; higher = weaker reporter binding; conditions: FMN input: 0 or 200 uM; Eterna round: R93 (includes R88 designs)
In short: as §1

Sequence	apparent KD of MS2 coat protein (MS2 coat protein [1])	apparent KD of MS2 coat protein (MS2 coat protein [2])
AAAAAACAUGAGGAUCACCCAUGUAAGGAUAUGCAAAAAAUGGGUAAAAGGGUAAAAAGCAGAAGGUACAAAAA [scarecrow1]	156 nM	92.1 nM
AAAAAACAUGAGGAUCACCCAUGUAAGGAUAUGCAAAAUAAAAGAAAUAAAAAGGAAAGCAGAAGGUACAUGAA [JL wbt mod 8]	21.9 nM	42.5 nM
AAAAAACAUGAGGAUCACCCAUGUAAGGAUAUGCAGAUUAUAAGAAAAAAAAAAAAAAGCAGAAGGUACAAAAA [Default title]	37.4 nM	28.2 nM
AAAAAACAUGAGGAUCACCCAUGUAAGGAUAUGCUCGGGCGAAAAAGCAAAAAAAAGAGCAGAAGGUACAAAAA [66%, Wbt, 42]	20.5 nM	38.7 nM
AAAAAACAUGAGGAUCACCCAUGUAAGGAUAUGCUGGUGCGAAAGCACAAAAAAAACAGCAGAAGGUACAAAAA [66%, Wbt, 37]	17.4 nM	27.5 nM
AAAAAACAUGAGGAUCACCCAUGUAAGGAUAUGUGAAAAAAAAAAUAAAAAAAAAAAAGCAGAAGGUACAAAAA [LROPPY Exclusion 1 - v01_deltaG=3.64]	66.5 nM	74.8 nM
AAAAAACAUGAGGAUCACCCAUGUCAGGAUAUACGAUAAAAAAAAAAAAAAAAAAAAUGUAGAAGGGACAAAAA [Simple 1]	60.3 nM	60.8 nM
AAAAAACAUGAGGAUCACCCAUGUCAGGAUAUCCGAAAAAAAAAAAAAAAAAGGCCUUGGAGAAGGGACAUUCC [Chica Displaced 7- Jieux - Exclusion 1]	53.7 nM	57.5 nM
AAAAAACAUGAGGAUCACCCAUGUCAGGAUAUCCGGAAAAAAAAAAAAAAAAGGCGUUGGAGAAGGGACAUUCC [Chica Displaced 8 - Jieux - Exclusion 1]	28.7 nM	36.8 nM
AAAAAACAUGAGGAUCACCCAUGUCAGGAUAUCCGGUUCUUAAAAAAAAAAAGGCGUUGGAGAAGGGACAUUCC [Chica Displaced 11 - Jieux - Exclusion 1]	28.9 nM	38 nM
AAAAAACAUGAGGAUCACCCAUGUCAGGAUAUCUGUAUAAAUAAAAAAAUAAAAAUACAGAGAAGGGACAAAAA [Ex1: 608]	50.5 nM	51.7 nM
AAAAAACAUGAGGAUCACCCAUGUGAGGAUAUACAAAACCCAUAUAAAAAGGGAAAAAGUAGAAGGCGCAAAAA [wbt round 1 mod 8]	20.8 nM	24.3 nM
AAAAAACAUGAGGAUCACCCAUGUGAGGAUAUACAGAAUGGAAUAAAAUAACAAGAAAGUAGAAGGCACAAAAA [Ex 1 May 38]	36.2 nM	41.6 nM
AAAAAACAUGAGGAUCACCCAUGUGAGGAUAUCCUGAAUGAAAUAAAAUAUCUCGAAAGGAGAAGGCGCAAAAA [Ex 1 May 33]	67.7 nM	49.9 nM
AAAAAACAUGAGGAUCACCCAUGUGAGGAUAUCGCUAGUGAGACCCUAGUGUCAGUGAUGAGAAGGCACAUAAA [Brourd 613 Mod 8 - Jieux - Exclusion 1]	32.8 nM	32.5 nM
AAAAAACAUGAGGAUCACCCAUGUGAGGAUAUGAAAAAACAAAAAAAAAAGUAAACAAUCAGAAGGCACAACAA [JR_Exc--1_Sub1211]	27.3 nM	24.4 nM
AAAAAACAUGAGGAUCACCCAUGUGAGGAUAUGAAAAUACUAAGACAACAGUAAUCAAUCAGAAGGCACAACAA [JR_Exc--1_Sub1209]	20.1 nM	25.8 nM
AAAAAACAUGAGGAUCACCCAUGUGAGGAUAUGACGUAAAUAAAGAAAGAAUAAAUCGUCAGAAGGCACACCAA [Mat - Exclusion 1 - Eli mod - D71]	31.4 nM	49.2 nM
AAAAAACAUGAGGAUCACCCAUGUGAGGAUAUGACGUAAAUAAAGAAAUAAGAAAUCGUCAGAAGGCACAAAAA [Mat - Exclusion 1 - Eli mod - D73]	28.6 nM	41.7 nM
AAAAAACAUGAGGAUCACCCAUGUGAGGAUAUGCUAAAAAAAAUAAAAAUAAAACAUAGCAGAAGGCACACCAA [Amethyst 57]	28.2 nM	38.4 nM
AAAAAACAUGAGGAUCACCCAUGUGAGGAUAUUAAAAAUAAGAAGGCAUAAAAAAAAAUAAGAAGGCACAUGAA [Meechl MS2 Ex1]	27.9 nM	33.2 nM
AAAAAACAUGAGGAUCACCCAUGUGAGGAUAUUGGUAUUAAAGACACCCACUUAAUGGCGAGAAGGCGCAAAAA [Brourd 613 Mod 19 - Jieux - Exclusion 1]	25.5 nM	27.5 nM
AAAAAACAUGAGGAUCACCCAUGUUAGGAUAUGCAGAGGGAAAAAAAAAAAAAAAAAAGCAGAAGGAACAUAAA [Design1]	31.5 nM	26.5 nM
AAAAAAGGAGGAUAUACGAACAUGUCAAAAGACGUGAAGGGACAUGAGGAUCACCCAUGUAGAAGGCCUAAAAA [JL Part Open 34]	35.4 nM	60.8 nM
AAAAAAGGAGGAUAUACGAACAUGUCGAAAGACGUGAAGGGACAUGAGGAUCACCCAUGUAGAAGGCUUAAAAA [Mat - Exclusion 2 - JL mod - D69]	37 nM	23.9 nM
AAAAAAGGAGGAUAUACGUACAUGUCAAAAGACGUGAAGGGACAUGAGGAUCACCCAUGUAGAAGGCCUAAAAA [JL Part Open 33]	45.2 nM	78.3 nM
AAAAAAUCAGGAUAUACAUGAGGAUCACCCAUGUGAAAGAACGAUUAACGACCAGCAAGUAGAAGGGAUAAAAA [Ruby 81]	18.1 nM	19.7 nM
AAAAAAUGAGGAUAUACAUGAGGAUCACCCAUGUAAAAGGUCAGGGUGGCGGAGGACGGUAGAAGGCAUAAAAA [Excls3-X]	21.6 nM	18.2 nM
AAAAACAGAGGAUAUACAAAAUUAUGACGAAAGUCAUAAAAACAUGAGGAUCACCCAUGUAGAAGGCUGGAAAA [Mat - Mod of Meechl]	28.5 nM	22.7 nM
AAAAACGGAGGAUAUACAAAUUAAGGAAGAAAACACGAAAAACAUGAGGAUCACCCAUGUAGAAGGCCGGAAAA [Ex 2 #3]	24.1 nM	29.7 nM

Reference: the supplement of paper PMC9170038
